Patent publication US20180258175A1 (ABLEXIS, published 2018)
Read-outs that look alike come from different tables or passages of the source.

Tests used:
[1] = target: T1, human CD115 extracellular domain (Sino Biological 10161-H08H) (human, UniProt P07333 20-517); assay: competition ELISA, competitor TMR 20A;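 also: epitope binning by ELISA, anti-huCD115 hybridoma supernatant antibodies tested for binding to huCD115 with the competitor antibody present, loss of binding placing them in the competitor's bin; low signal means same epitope bin as the mouse competitor antibody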
T1 construct: extracellular domain; bought recombinant protein; also called huCD115; hu-CD115

[2] = target: T2, native CD115 on OCI-AML5 cells (UniProt P07333 20-972, limits assumed); assay: cell-based or functional assay
[3] = target: T1, human CD115 extracellular domain (Sino …); assay: competition ELISA, competitor TMR 100A;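 also: clonal anti-huCD115 hybridoma supernatants tested for binding with the competitor antibody present, clones failing to bind are assigned to the competitor's epitope bin; low signal means same epitope bin as the mouse competitor antibody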
[4] = target: T1, human CD115 extracellular domain (Sino …); assay: ELISA, blocking of biotin-CSF-1 binding to coated hu-CD115
[5] = target: T1, human CD115 extracellular domain (Sino …); assay: competition ELISA, competitor TMR 35A;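 also: clonal hybridoma supernatant antibodies added to wells after the competitor mouse antibody, lost binding signal puts an antibody in that competitor's epitope bin; low signal means same epitope bin as the mouse competitor antibody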
[6] = target: T1, human CD115 extracellular domain (Sino …); assay: competition ELISA, competitor TMR 24A;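 also: clonal anti-huCD115 hybridoma supernatant antibodies bound with a competitor mouse antibody present, and failure to bind puts a clone in that competitor's epitope bin; low signal means same epitope bin as the mouse competitor antibody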
[7] = target: T1, human CD115 extracellular domain (Sino …); assay: competition ELISA, competitor TMR 44B
[8] = target: T1, human CD115 extracellular domain (Sino …); assay: competition ELISA, competitor TMR 95A
[9] = target: T1, human CD115 extracellular domain (Sino …); assay: SPR ProteOn, mAb amine coupled, Hu CD115 analyte
[10] = target: T2, native CD115 on OCI-AML5 cells; assay: cell-based or functional assay; remark: listed apart in the source
[11] = target: T1, human CD115 extracellular domain (Sino …); assay: ELISA, blocking of biotin-CSF-1 binding to coated hu-CD115; remark: listed apart in the source

| signal vs NO COMP=100 [1] [%] | IC50, inhibition of CSF-1 induced phosphorylation of CD115 [2] [pM] | signal vs NO COMP=100 [3] [%] | IC50 [4] [nM] | signal vs NO COMP=100 [5] [%] | signal vs NO COMP=100 [6] [%] | signal vs NO COMP=100 [7] [%] | signal vs NO COMP=100 [8] [%] | Kd [9] [nM] | koff [9] [s⁻¹] | kon [9] [M⁻¹ s⁻¹] | IC50, inhibition of CSF-1 induced P-Tyr on CD115 [10] [pM] | IC50 [11] [nM] | Binder |
| --- | --- | --- | --- | --- | --- | --- | --- | --- | --- | --- | --- | --- | --- |
| 97 | 570 | 93 | 0.355 | 96 | 31 | 46 | 11 | – | – | – | – | – | CCK-415A (antibody, V domains shown, AlivaMab chimeric IgG, human kappa LC) VH: QVQLQESGPGLVKPSETLSLTCTVSGGSISSSYWTWIRQPPGKGLEWIGYIHYSGSTNYNPSLKSRVTISVDTSKNQFSLKLSSVTAADTAVYYCARGFDYWGQGTLVTVSS VL: not shown |
| – | 45 | – | 0.135 | – | – | – | – | 1.2 | 0.015 | 1.3e+07 | 58 | 0.191 | CCK-423A (antibody, V domains shown, AlivaMab chimeric IgG, human kappa LC; also called AlivaMab CCK423A; AlivaMab Mouse CCK423A) VH: QVQLEQSGAEVKRPGASVKVSCKASGYTFTGYYMHWVRQAPGQGLEWMGWINPNRGDTNYAQKFQGRVTMTRDTSISTAYMELSRLRSDDTAVYYCARDLEGGGPFDYWGQGTLVTVSS VL: DIVMTQTPLSLPVTPGEPASISCRSSQSLLDSDDGNTYLDWYLQKPGQSPQLLIYTLSYRASGVPDRFSGSGSGTDFTLKISRVEAEDVGVYYCMQRIEFPSTFGQGTRLEIK |
| – | – | – | – | – | – | – | – | 1.3 | 0.015 | 1.1e+07 | 60 | 0.133 | CCK423A-IgG4κ (fully human) (antibody, V domains shown, also called Human IgG4κ; CCK423A-IgG4K) VH: QVQLEQSGAEVKRPGASVKVSCKASGYTFTGYYMHWVRQAPGQGLEWMGWINPNRGDTNYAQKFQGRVTMTRDTSISTAYMELSRLRSDDTAVYYCARDLEGGGPFDYWGQGTLVTVSS VL: DIVMTQTPLSLPVTPGEPASISCRSSQSLLDSDDGNTYLDWYLQKPGQSPQLLIYTLSYRASGVPDRFSGSGSGTDFTLKISRVEAEDVGVYYCMQRIEFPSTFGQGTRLEIK |
| 94 | 1350 | 104 | 0.811 | 107 | 37 | 53 | 21 | – | – | – | – | – | CCK-416A (antibody, V domains shown, AlivaMab chimeric IgG, human kappa LC) VH: EVQLVESGGDLVQPGGSLRLSCADSRFTFSSYSMNWVRQAPGKGLEWVSYISPSSSTIYYADSVRGRFTISRDNAKNSLYLQMNSLRNEDTAVYYCARDFPHDYGYYPHYFDYWGQGTLVTVSS VL: not shown |
